According to patent publication US20230287145A1 (Hoffmann-La Roche, published 2023):

What was measured:
[1] = target: T1, biotinylated anti-human CD3 IgG (anti-CD3 P035.093) (biotinylated (site not stated)); assay: SPR; biotinylated anti-CD3 P035.093 IgG on CAP chip, anti-idiotypic IgG at 1 µg/ml; response normalised to anti-human IgG surface and to the unstressed sample; after 14 d at 40 °C pH 6.0
T1 construct: IgG format of this reagent is not described further; immobilised on a CAP chip; also called CD3 IgG (P035.093)
Method: (§1) Flow cell 1 was kept as mock surface. […] Dissociation was monitored for 30 s, the flow rate was set to 5 μl/min. The CAP chip was regenerated by injecting a mix of NaOH and Guadinium-hydrochloride for 120 s, provided in the biotin capture kit. Bulk refractive index differences were corrected by subtracting the response obtained from flow cell 1 (mock surface).

[2] = target: T1, biotinylated anti-human CD3 IgG …; assay: SPR; biotinylated anti-CD3 P035.093 IgG on CAP chip, anti-idiotypic IgG at 1 µg/ml; response normalised to anti-human IgG surface and to the unstressed sample; after 14 d at 37 °C pH 7.4
Method: Therefore, they were analyzed for thermal stability and remaining target binding after 14 d stress conditions (40° C. at pH6.0 or 37° C. at pH7.4).
as §1

[3] = target: T2, Human CD3ε stalk-Fc(knob)-Avi/CD3δ stalk-Fc(hole) (human); assay: SPR, biotinylated human CD3ε/δ on SA chip, TCB at 2 µg/ml; response normalised to anti-huIgG capture and referenced to the unstressed sample; after 2 weeks at pH 7.4/37 °C
T2 construct: Heterodimeric Fc fusion; also called human CD3ε/δ; Human CD3 epsilon stalk-Fc(knob)-Avi
Method: (§2) In order to assess the effect of the deamidation site removal and its effect on the stability of the antibodies, the optimized anti-CD3 antibodies (in TCB format) were incubated for 14 days at 37° C., pH 7.4 and at 40° C., pH 6 and further analyzed by SPR for their binding capability to human CD3ε/δ. Samples stored at −80° C. pH 6 were used as reference. The reference samples and the samples stressed at 40° C. were in 20 mM His, 140 mM NaCl, pH 6.0, and the samples stressed at 37° C. in PBS, pH 7.4, all at a concentration of 1.0 mg/ml. After the stress period (14 days) samples in PBS were dialyzed back to 20 mM His, 140 mM NaCl, pH 6.0 for further analysis.
(§3) All SPR experiments were performed on a Biacore T200 instrument (GE Healthcare) at 25° C. with HBS-P+ (10 mM HEPES, 150 mM NaCl pH 7.4, 0.05% Surfactant P20) as running and dilution buffer. Biotinylated human CD3ε/δ (see Example 3, SEQ ID NOs 41 and 42) as well as biotinylated anti-huIgG (Capture Select, Thermo Scientific, #7103262100) were immobilized on a Series S Sensor Chip SA (GE Healthcare, #29104992), resulting in surface densities of at least 1000 resonance units (RU). Anti-CD3 antibodies with a concentration of 2 μg/ml were injected for 30 s at a flow rate of 5 μl/min, and dissociation was monitored for 120 s. The surface was regenerated by injecting 10 mM glycine pH 1.5 for 60 s. Bulk refractive index differences were corrected by subtracting blank injections and by subtracting the response obtained from a blank control flow cell. For evaluation, the binding response 5 seconds after injection end was taken. To normalize the binding signal, the CD3 binding was divided by the anti-huIgG response (the signal (RU) obtained upon capture of the CD3 antibody on the immobilized anti-huIgG antibody). The relative binding activity was calculated by referencing each temperature stressed sample to the corresponding, non-stressed sample.

[4] = target: T2, Human CD3ε stalk-Fc(knob)-Avi/CD3δ …; assay: SPR, biotinylated human CD3ε/δ on SA chip, TCB at 2 µg/ml; response normalised to anti-huIgG capture and referenced to the unstressed sample; after 2 weeks at pH 6.0/40 °C
Method: as §2, §3

T1 sequence (VH, as listed by the source, chain 1 of 2): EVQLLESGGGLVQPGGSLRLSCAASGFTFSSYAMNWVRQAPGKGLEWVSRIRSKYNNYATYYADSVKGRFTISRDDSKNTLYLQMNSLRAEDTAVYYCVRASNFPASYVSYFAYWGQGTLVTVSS
T1 sequence (VL, as listed by the source, chain 2 of 2): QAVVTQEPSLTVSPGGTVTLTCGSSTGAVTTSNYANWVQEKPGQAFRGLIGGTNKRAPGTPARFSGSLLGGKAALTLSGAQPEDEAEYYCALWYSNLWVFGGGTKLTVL

| Binder | Rel. active concentration [%] [1] [%] | Rel. active concentration [%] [2] [%] | binding activity [%] [3] [%] | binding activity [%] [4] [%] |
| --- | --- | --- | --- | --- |
| Humanized variant H3L3 of anti-idiotypic antibody 4.24.72 (IgG) (antibody, V domains shown, Produced and purified as IgG; also called Mask humanization variant H3L3) VH: QVQLVQSGSELKKPGASVKVSCKASGYTVTDYSMNWVRQAPGQGLEWMGWINTETGEPRYTQGFKGRFVFSLDTSVSTAYLQISSLKAEDTAVYYCAREGDYDVFDYWGQGTLVTVSS VL: DIVMTQSPDSLAVSLGERATINCRASKSVSTSSYSYMHWYQQKPGQPPKLLIKYVSYLESGVPDRFSGSGSGTDFTLTISSLQAEDVAVYYCQQSREFPYTFGQGTKLEIK | 97 | 87 | – | – |
| Humanized variant H7L5 of anti-idiotypic antibody 4.24.72 (IgG) (antibody, V domains shown, Produced and purified as IgG; also called Mask humanization variant H7L5) VH: QVQLVQSGAEVKKPGASVKVSCKASGYTVTDYSMNWVRQAPGQGLEWMGWINTETGEPRYTDDFKGRVTMTRDTSISTAYMELSRLRSDDTAVYYCAREGDYDVFDYWGQGTLVTVSS VL: DIVMTQSPDSLAVSLGERATINCRASKSVSTSSYSYMHWYQQKPGQPPKLLIYYVSYLESGVPDRFSGSGSGTDFTLTISSLQAEDVAVYYCQHSREFPYTFGQGTKLEIK | 98 | 80 | – | – |
| TYRP1 TCB containing the parental CD3 binder CD3orig (bispecific antibody, human IgG1, kappa, L234A L235A, also called CD3orig in TCB format) heavy 1: not shown heavy 2: QVQLVQSGAEVKKPGASVKVSCKASGFNIKDYFLHWVRQAPGQGLEWMGWINPDNGNTVYAQKFQGRVTMTADTSTSTVYMELSSLRSEDTAVYYCTRRDYTYEKAALDYWGQGTLVTVSSASTKGPSVFPLAPSSKSTSGGTAALGCLVEDYFPEPVTVSWNSGALTSGVHTFPAVLQSSGLYSLSSVVTVPSSSLGTQTYICNVNHKPSNTKVDEKVEPKSCDKTHTCPPCPAPEAAGGPSVFLFPPKPKDTLMISRTPEVTCVVVDVSHEDPEVKFNWYVDGVEVHNAKTKPREEQYNSTYRVVSVLTVLHQDWLNGKEYKCKVSNKALGAPIEKTISKAKGQPREPQVCTLPPSRDELTKNQVSLSCAVKGFYPSDIAVEWESNGQPENNYKTTPPVLDSDGSFFLVSKLTVDKSRWQQGNVFSCSVMHEALHNHYTQKSLSLSP light 1: DIQMTQSPSSLSASVGDRVTITCRASGNIYNYLAWYQQKPGKVPKLLIYDAKTLADGVPSRFSGSGSGTDFTLTISSLQPEDVATYYCQHFWSLPFTFGQGTKLEIKRTVAAPSVFIFPPSDRKLKSGTASVVCLLNNFYPREAKVQWKVDNALQSGNSQESVTEQDSKDSTYSLSSTLTLSKADYEKHKVYACEVTHQGLSSPVTKSFNRGEC light 2: EVQLLESGGGLVQPGGSLRLSCAASGFTFSTYAMNWVRQAPGKGLEWVSRIRSKYNNYATYYADSVKGRFTISRDDSKNTLYLQMNSLRAEDTAVYYCVRHGNFGNSYVSWFAYWGQGTLVTVSSASVAAPSVFIFPPSDEQLKSGTASVVCLLNNFYPREAKVQWKVDNALQSGNSQESVTEQDSKDSTYSLSSTLTLSKADYEKHKVYACEVTHQGLSSPVTKSFNRGEC | – | – | 65 | 95 |
| TYRP1 TCB containing optimized anti-CD3 antibody clone P035.064 (bispecific antibody, human IgG1, kappa, L234A L235A, 2+1 IgG CrossFab, inverted, with charge modifications; knob-into-hole, P329G L234A L235A; also called CD3opt (P035.064)) heavy 1: not shown heavy 2: QVQLVQSGAEVKKPGASVKVSCKASGFNIKDYFLHWVRQAPGQGLEWMGWINPDNGNTVYAQKFQGRVTMTADTSTSTVYMELSSLRSEDTAVYYCTRRDYTYEKAALDYWGQGTLVTVSSASTKGPSVFPLAPSSKSTSGGTAALGCLVEDYFPEPVTVSWNSGALTSGVHTFPAVLQSSGLYSLSSVVTVPSSSLGTQTYICNVNHKPSNTKVDEKVEPKSCDKTHTCPPCPAPEAAGGPSVFLFPPKPKDTLMISRTPEVTCVVVDVSHEDPEVKFNWYVDGVEVHNAKTKPREEQYNSTYRVVSVLTVLHQDWLNGKEYKCKVSNKALGAPIEKTISKAKGQPREPQVCTLPPSRDELTKNQVSLSCAVKGFYPSDIAVEWESNGQPENNYKTTPPVLDSDGSFFLVSKLTVDKSRWQQGNVFSCSVMHEALHNHYTQKSLSLSP light 1: DIQMTQSPSSLSASVGDRVTITCRASGNIYNYLAWYQQKPGKVPKLLIYDAKTLADGVPSRFSGSGSGTDFTLTISSLQPEDVATYYCQHFWSLPFTFGQGTKLEIKRTVAAPSVFIFPPSDRKLKSGTASVVCLLNNFYPREAKVQWKVDNALQSGNSQESVTEQDSKDSTYSLSSTLTLSKADYEKHKVYACEVTHQGLSSPVTKSFNRGEC light 2: EVQLLESGGGLVQPGGSLRLSCAASGFDFDNYAMNWVRQAPGKGLEWVSRIRSKHNGYATYYADSVKGRFTISRDDSKNTLYLQMNSLRAEDTAVYYCVRASNFPSSYVSYFGYWGQGTLVTVSSASVAAPSVFIFPPSDEQLKSGTASVVCLLNNFYPREAKVQWKVDNALQSGNSQESVTEQDSKDSTYSLSSTLTLSKADYEKHKVYACEVTHQGLSSPVTKSFNRGEC | – | – | 96 | 97 |
| TYRP1 TCB containing optimized anti-CD3 antibody clone P004.042 (bispecific antibody, human IgG1, kappa, L234A L235A, 2+1 IgG CrossFab, inverted, with charge modifications; knob-into-hole, P329G L234A L235A; also called CD3opt (P004.042)) heavy 1: not shown heavy 2: QVQLVQSGAEVKKPGASVKVSCKASGFNIKDYFLHWVRQAPGQGLEWMGWINPDNGNTVYAQKFQGRVTMTADTSTSTVYMELSSLRSEDTAVYYCTRRDYTYEKAALDYWGQGTLVTVSSASTKGPSVFPLAPSSKSTSGGTAALGCLVEDYFPEPVTVSWNSGALTSGVHTFPAVLQSSGLYSLSSVVTVPSSSLGTQTYICNVNHKPSNTKVDEKVEPKSCDKTHTCPPCPAPEAAGGPSVFLFPPKPKDTLMISRTPEVTCVVVDVSHEDPEVKFNWYVDGVEVHNAKTKPREEQYNSTYRVVSVLTVLHQDWLNGKEYKCKVSNKALGAPIEKTISKAKGQPREPQVCTLPPSRDELTKNQVSLSCAVKGFYPSDIAVEWESNGQPENNYKTTPPVLDSDGSFFLVSKLTVDKSRWQQGNVFSCSVMHEALHNHYTQKSLSLSP light 1: DIQMTQSPSSLSASVGDRVTITCRASGNIYNYLAWYQQKPGKVPKLLIYDAKTLADGVPSRFSGSGSGTDFTLTISSLQPEDVATYYCQHFWSLPFTFGQGTKLEIKRTVAAPSVFIFPPSDRKLKSGTASVVCLLNNFYPREAKVQWKVDNALQSGNSQESVTEQDSKDSTYSLSSTLTLSKADYEKHKVYACEVTHQGLSSPVTKSFNRGEC light 2: EVQLLESGGGLVQPGGSLRLSCAASGFQFDNYAMNWVRQAPGKGLEWVSRIRTKYNEYATYYADSVKGRFTISRDDSKNTLYLQMNSLRAEDTAVYYCVRASNFPQSYVSYFGYWGQGTLVTVSSASVAAPSVFIFPPSDEQLKSGTASVVCLLNNFYPREAKVQWKVDNALQSGNSQESVTEQDSKDSTYSLSSTLTLSKADYEKHKVYACEVTHQGLSSPVTKSFNRGEC | – | – | 98 | 98 |
| TYRP1 TCB containing optimized anti-CD3 antibody clone P021.045 (bispecific antibody, human IgG1, kappa, L234A L235A, 2+1 IgG CrossFab, inverted, with charge modifications; knob-into-hole, P329G L234A L235A; also called CD3opt (P021.045)) heavy 1: not shown heavy 2: QVQLVQSGAEVKKPGASVKVSCKASGFNIKDYFLHWVRQAPGQGLEWMGWINPDNGNTVYAQKFQGRVTMTADTSTSTVYMELSSLRSEDTAVYYCTRRDYTYEKAALDYWGQGTLVTVSSASTKGPSVFPLAPSSKSTSGGTAALGCLVEDYFPEPVTVSWNSGALTSGVHTFPAVLQSSGLYSLSSVVTVPSSSLGTQTYICNVNHKPSNTKVDEKVEPKSCDKTHTCPPCPAPEAAGGPSVFLFPPKPKDTLMISRTPEVTCVVVDVSHEDPEVKFNWYVDGVEVHNAKTKPREEQYNSTYRVVSVLTVLHQDWLNGKEYKCKVSNKALGAPIEKTISKAKGQPREPQVCTLPPSRDELTKNQVSLSCAVKGFYPSDIAVEWESNGQPENNYKTTPPVLDSDGSFFLVSKLTVDKSRWQQGNVFSCSVMHEALHNHYTQKSLSLSP light 1: DIQMTQSPSSLSASVGDRVTITCRASGNIYNYLAWYQQKPGKVPKLLIYDAKTLADGVPSRFSGSGSGTDFTLTISSLQPEDVATYYCQHFWSLPFTFGQGTKLEIKRTVAAPSVFIFPPSDRKLKSGTASVVCLLNNFYPREAKVQWKVDNALQSGNSQESVTEQDSKDSTYSLSSTLTLSKADYEKHKVYACEVTHQGLSSPVTKSFNRGEC light 2: EVQLLESGGGLVQPGGSLRLSCAASGFTFSSYAMNWVRQAPGKGLEWVSRIRSKYNNYATYYADSVKGRFTISRDDSKNTLYLQMNSLRAEDTAVYYCVRASNFPSSYVSYFAYWGQGTLVTVSSASVAAPSVFIFPPSDEQLKSGTASVVCLLNNFYPREAKVQWKVDNALQSGNSQESVTEQDSKDSTYSLSSTLTLSKADYEKHKVYACEVTHQGLSSPVTKSFNRGEC | – | – | 95 | 99 |
